Reference: article PMC6272300, “Characterization of a (2R,3R)-2,3-Butanediol Dehydrogenase from Rhodococcus erythropolis WZ010” (Molecules, 2015)

Legend:
Test in all cases: purified protein
purified protein [1] = substrate: CC(=O)C(C)=O; assay type: biochemical, Rhodococcus erythropolis; conditions: reduction; 0.4 mM NADH; 50 mM PIPES pH 6.5, 55 °C (swapped); pH 6.5; 55.0 °C
purified protein [2] = substrate: NC(=O)c1ccc[n+]([C@@H]2O[C@H](COP(=O)(O)OP(=O)(O)OC[C@H]3O[C@@H](n4cnc5c(N)ncnc54)[C@H](O)[C@@H]3O)[C@@H](O)[C@H]2O)c1; assay type: biochemical, Rhodococcus erythropolis; conditions: oxidation; 50 mM (2R,3R)-2,3-butanediol; 50 mM CAPS pH 10.0, 45 °C; pH 10.0; 45.0 °C; varied: cofactor
purified protein [3] = substrate: NC(=O)C1=CN([C@@H]2O[C@H](COP(=O)(O)OP(=O)(O)OC[C@H]3O[C@@H](n4cnc5c(N)ncnc54)[C@H](O)[C@@H]3O)[C@@H](O)[C@H]2O)C=CC1; assay type: biochemical, Rhodococcus erythropolis; conditions: reduction; 50 mM diacetyl; 50 mM PIPES pH 6.5, 55 °C; pH 6.5; 55.0 °C; varied: cofactor
purified protein [4] = substrate: C[C@@H](O)[C@@H](C)O; conditions: oxidation, 0.64 mM NAD+, 50 mM CAPS pH 10.0, 45 °C (b26 prints the pH and temperature of the two directions swapped)

B1: ReBDH (Rhodococcus erythropolis PR4) (protein)
chain: MKAARFHGQKDIRIEEIPEPELRPGTVKLKVAWCGICGTDLHEYLEGPIFISAPGHPHPLSHENAPVTMGHEFSGTVEEVGEGVTDVEVGENVVVEPYFVCNECAPCKAGNYHLCTKMGFIGLAGGGGGLSEKVVVDRRWIHKIGNIPLDEAALIEPLSVAHHAVVRSGAESGNVAIVGGAGPIGLLVAAVLKGLGVTTIVTELSEARKAKALSSGVADYVIDPTTEDVKARVLELSGGIGADIGFECAGVNAVLDTMLDTVRPAGVVVNVSIWGKPATIDMQKLVLKEIDLRGTIAYVRDHEAVIKMVQDGVVDLAPFITGRIQLEELISEGFTTLIEHNDTAVKILVRS
notes: full length, 351 residues, deduced 37180 Da; N-terminal His-tag (pEASY-E1) kept, E. coli BL21(DE3), Ni-NTA; native 45 kDa monomer
B1 gave a Km (purified protein [1]) of 0.1 ± 0.01 mM, a Vmax (purified protein [1]) of 9.49 µmol/min/mg and a kcat (purified protein [1]) of 6.11 ± 0.14 s⁻¹. It also gave a kcat/Km (purified protein [1]) of 61100 ± 7650 M⁻¹ s⁻¹, a Km (purified protein [2]) of 1.04 ± 0.11 mM and a Vmax (purified protein [2]) of 16 µmol/min/mg. It also gave a kcat (purified protein [2]) of 10.3 ± 0.69 s⁻¹, a kcat/Km (purified protein [2]) of 9880 ± 1780 M⁻¹ s⁻¹ and a Km (purified protein [3]) of 0.08 ± 0.01 mM. The Vmax (purified protein [3]) was 8.92 µmol/min/mg, the kcat (purified protein [3]) was 5.73 ± 0.08 s⁻¹ and the kcat/Km (purified protein [3]) was 71600 ± 10100 M⁻¹ s⁻¹. It also gave a Km (purified protein [4]) of 0.58 ± 0.05 mM, a Vmax (purified protein [4]) of 6.65 µmol/min/mg and a kcat (purified protein [4]) of 4.28 s⁻¹. For the same protein, the kcat/Km (purified protein [4]) was 7380 M⁻¹ s⁻¹.
